Source: patent EP4725970A1 (Fortvita Biologics Inc., dated 2026)
Positions count from the first letter of the chain named. Read-outs that look alike come from different tables or passages of the source. Blank lines part the entries; values can stand above or below the binder they belong to.

Tests used:
[1] = biological target: T1, human GPRC5D (full-length, on cells) (human, UniProt Q9NZD1 1-345); assay: cell-based or functional assay
[2] = biological target: T2, cynomolgus monkey GPRC5D (full-length, on cells) (cynomolgus monkey, UniProt A0A2K5W6I7 1-300); assay: flow cytometry, GS-CHO-cynoGPRC5D cells
T2 construct: also called cynoGPRC5D; GS-CHO-cynoGPRC5D
T2 sequence (A0A2K5W6I7 entry or part of it limits assumed, form in doubt): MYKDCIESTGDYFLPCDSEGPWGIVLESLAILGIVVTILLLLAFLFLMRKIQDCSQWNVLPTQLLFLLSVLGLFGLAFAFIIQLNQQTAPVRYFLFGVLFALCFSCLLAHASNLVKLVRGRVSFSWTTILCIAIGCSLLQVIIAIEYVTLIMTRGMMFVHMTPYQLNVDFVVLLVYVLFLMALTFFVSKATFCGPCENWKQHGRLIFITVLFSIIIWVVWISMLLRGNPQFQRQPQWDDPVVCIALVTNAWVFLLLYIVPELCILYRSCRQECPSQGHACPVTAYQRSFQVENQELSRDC

[3] = biological target: T1, human GPRC5D (full-length, on cells); assay: flow cytometry, GS-CHO-hGPRC5D cells
[4] = biological target: T3, human BCMA (full-length, on cells) (human, UniProt Q02223 1-184); assay: cell-based or functional assay
T3 sequence: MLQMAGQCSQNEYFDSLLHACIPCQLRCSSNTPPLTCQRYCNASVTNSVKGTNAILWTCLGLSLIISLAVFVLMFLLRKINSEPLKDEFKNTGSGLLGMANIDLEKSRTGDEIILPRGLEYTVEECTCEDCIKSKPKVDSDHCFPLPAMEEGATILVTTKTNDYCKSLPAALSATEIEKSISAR

[5] = biological target: T3, human BCMA (full-length, on cells); assay: cell-based or functional assay; remark: listed apart in the source
[6] = biological target: T4, human CD3 (on Jurkat cells and human T cells) (human, UniProt P07766 23-207); assay: flow cytometry, human CD4 T cells
T4 construct: whole, on cells; the other chains of the complex on the cells are not described; also called CD3E
T4 sequence (P07766 23-207): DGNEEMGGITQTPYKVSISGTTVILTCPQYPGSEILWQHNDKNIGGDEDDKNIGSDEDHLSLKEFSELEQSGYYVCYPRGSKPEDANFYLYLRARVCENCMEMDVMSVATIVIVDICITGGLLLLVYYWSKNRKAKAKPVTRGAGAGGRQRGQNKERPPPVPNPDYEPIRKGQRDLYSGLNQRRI

[7] = biological target: T1, human GPRC5D (full-length, on cells); assay: cell-based or functional assay; remark: listed apart in the source
[8] = biological target: T1, human GPRC5D (full-length, on cells); assay: cell-based or functional assay; remark: listed apart in the source
[9] = biological target: T3, human BCMA (full-length, on cells); assay: flow cytometry, GS-CHO-hBCMA cells
[10] = biological target: T5, BCMA-R27P (on cells) (human, UniProt Q02223 1-184); assay: flow cytometry on 293T and GS CHO cells (FIG. 2I, 2J)
T5 construct: also called hBCMA-R27P; 293T-hBCMA-R27P
T5 chain: T3 sequence with R27P

[11] = biological target: T6, BCMA-R39A (on cells) (human, UniProt Q02223 1-184); assay: as above
T6 construct: also called hBCMA-R39A; 293T-hBCMA-R39A
T6 chain: T3 sequence with R39A

[12] = biological target: T3, human BCMA (full-length, on cells); assay: cell-based or functional assay; remark: listed apart in the source
[13] = biological target: T4, human CD3 (on Jurkat cells and human T …); assay: flow cytometry, Jurkat cells
[14] = biological target: T4, human CD3 (on Jurkat cells and human T …); assay: flow cytometry, human CD8 T cells
[15] = biological target: T7, human CD3E&G-His/Free (human, UniProt P07766 23-126; P09693 23-116); assay: BLI (Octet), 1:1 fit
T7 construct: Bought recombinant heterodimer; 'His/Free' as printed (one chain His-tagged); also called human CD3 E&G heterodimer
T7 sequence (P07766 23-126, chain 1 of 2): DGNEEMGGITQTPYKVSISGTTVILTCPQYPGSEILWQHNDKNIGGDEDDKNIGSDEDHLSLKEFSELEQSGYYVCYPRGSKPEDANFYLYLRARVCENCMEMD
T7 sequence (P09693 23-116, chain 2 of 2): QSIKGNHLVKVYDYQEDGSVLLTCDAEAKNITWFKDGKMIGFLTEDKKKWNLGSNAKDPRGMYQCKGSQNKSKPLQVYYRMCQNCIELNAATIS

[16] = biological target: T8, cyno CD3E&G-His/Free (cynomolgus monkey, UniProt Q95LI5 22-117; Q95LI7 23-113); assay: BLI (Octet), 1:1 fit
T8 construct: Bought recombinant heterodimer; also called monkey CD3 E&G
T8 sequence (looked up) 1: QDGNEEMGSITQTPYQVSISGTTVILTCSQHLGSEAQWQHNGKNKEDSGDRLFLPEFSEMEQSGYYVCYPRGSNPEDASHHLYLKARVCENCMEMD
T8 sequence (looked up) 2: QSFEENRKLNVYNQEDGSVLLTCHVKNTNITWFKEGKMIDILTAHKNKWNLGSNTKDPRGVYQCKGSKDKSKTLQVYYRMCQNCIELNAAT

[17] = biological target: T9, cynomolgus monkey BCMA (full-length, on cells) (cynomolgus monkey, UniProt A0A2K5UD97 1-183); assay: flow cytometry, GS-CHO-cynoBCMA cells
T9 construct: whole, on cells; also called cynoBCMA; GS-CHO-cynoBCMA
T9 sequence (A0A2K5UD97 entry or part of it): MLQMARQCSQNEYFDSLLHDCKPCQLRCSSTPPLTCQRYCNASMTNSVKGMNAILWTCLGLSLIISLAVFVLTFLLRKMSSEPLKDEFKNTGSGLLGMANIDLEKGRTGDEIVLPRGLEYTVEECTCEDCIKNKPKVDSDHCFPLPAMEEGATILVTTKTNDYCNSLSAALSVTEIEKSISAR

[18] = biological target: T3, human BCMA (full-length, on cells); assay: cell-based or functional assay; remark: listed apart in the source

T1 sequence (Q9NZD1 whole entry): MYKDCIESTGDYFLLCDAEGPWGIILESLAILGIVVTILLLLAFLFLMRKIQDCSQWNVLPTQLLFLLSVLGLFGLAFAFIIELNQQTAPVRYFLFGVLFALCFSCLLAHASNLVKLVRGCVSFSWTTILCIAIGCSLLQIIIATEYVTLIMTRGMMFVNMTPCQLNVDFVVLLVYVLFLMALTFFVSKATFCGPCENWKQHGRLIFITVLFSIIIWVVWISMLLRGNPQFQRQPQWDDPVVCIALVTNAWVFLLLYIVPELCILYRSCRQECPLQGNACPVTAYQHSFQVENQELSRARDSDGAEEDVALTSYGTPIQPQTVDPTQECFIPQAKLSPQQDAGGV

EC50 [2]: 256 nM | EC50 [3]: 80.7 nM | EC50 [6]: 53.6 nM | EC50 [9]: 11.4 nM | binding result [10]: binds | binding result [11]: binds | EC50 [13]: 34.5 nM | EC50 [14]: 54.5 nM | Kd [15]: 13.3 nM | koff [15]: 0.00859 s⁻¹ | kon [15]: 646000 M⁻¹ s⁻¹ | Kd [16]: 9.51 nM | koff [16]: 0.00658 s⁻¹ | kon [16]: 692000 M⁻¹ s⁻¹ | EC50 [17]: 14.2 nM
B1: B3 (24) (hz5E12_sp34.24_497_triFab) (trispecific antibody, human IgG1, kappa, lambda, L234A L235A)
heavy 1: not shown
light 1: DIVMTQSPDSLAVSLGERATINCRASESVDSYGITFMNWYQQKPGQPPKLLIYAASNQGSGVPDRFSGSGSGTDFTLTISSLQAEDVAVYYCQQSKEVPWTFGQGTKLEIKRTVAAPSVFIFPPSDEQLKSGTASVVCLLNNFYPREAKVQWKVDNALQSGNSQESVTEQDSKDSTYSLSSTLTLSKADYEKHKVYACEVTHQGLSSPVTKSFNRGEC
heavy 2: not shown
light 2: DIQMTQSPSSLSASVGDRVTITCRASQSISRYLNWYQDKPGKAPKLLIYAASSLQSGVPSRFSGSGSGTDFTLTISSLQPEDFATYYCQQKYFDITFGGGTKVEIKRTVAAPSVFIFPPSDECLKSGTASVVCLLNNFYPREAKVQWKVDNALQSGNSQESVTEQDSKDSTYSLSSTLTLSKADYEKHKVYACEVTHQGLSSPVTKSFNRGES
light 3: QAVVTQEPSLTVSPGGTVTLTCRSSTGAVTTSNYANWVQKKPGQAPRGLIGGTNKRAPGVPARFSGSLLGDKAALTLLGAQPEDEAEYYCALWYSNLWVFGQGTKLTVLGQPKAAPSVTLFPPSSEELQANKATLVCLISDFYPGAVTVAWKADSSPVKAGVETTTPSKQSNNKYAASSYLSLTPEQWKSHRSYSCQVTHEGSTVEKTVAPTECS
notes: also called Exemplary antibody No. 1
EC50 of PBMC killing of H929 ko BCMA cells (LDH) [1]: 0.00698 nM | EC50 of PBMC killing of H929 ko GPRC5D cells (LDH) [4]: 0.017 nM | EC50 of PBMC killing of H929 ko GPRC5D cells (LDH) [5]: 0.0867 nM | EC50 of PBMC killing of H929 ko BCMA cells, donor1 [7]: 0.00931 nM | EC50 of PBMC killing of H929 ko BCMA cells (LDH) [8]: 0.00149 nM | EC50 of PBMC killing of H929 ko GPRC5D cells, donor1 [12]: 0.0175 nM

B2: Inno-B (Hel_sp34.24_497_triFab) (trispecific antibody, human IgG1, kappa, lambda, L234A L235A)
heavy 1: not shown
light 1: not shown
heavy 2: not shown
light 2: B1 light 2
light 3: B1 light 3
EC50 of PBMC killing of L363 cells [18]: 0.192 nM
